Read-outs that look alike come from different tables or passages of the source. Square brackets hold non-standard residues; d marks the D form. Ends that are not written are not given here. hArg = N=C(N)NCCCC[C@H](N)C(=O)O; Nle = CCCC[C@H](N)C(=O)O; Aib = CC(C)(N)C(=O)O

The results in this text go back to US20050026839A1 (GENERAL HOSPITAL, published 2005).

Experiment [1] has as its target T1, wild-type human PTH/PTHrP receptor (hP1R-WT) (human, UniProt Q03431 27-593).
T1 construct: whole, on cells; HKRK-B28 cells express ~280,000 receptors per cell; also called PTH-1 receptor; PTH-1R
T1 sequence (looked up): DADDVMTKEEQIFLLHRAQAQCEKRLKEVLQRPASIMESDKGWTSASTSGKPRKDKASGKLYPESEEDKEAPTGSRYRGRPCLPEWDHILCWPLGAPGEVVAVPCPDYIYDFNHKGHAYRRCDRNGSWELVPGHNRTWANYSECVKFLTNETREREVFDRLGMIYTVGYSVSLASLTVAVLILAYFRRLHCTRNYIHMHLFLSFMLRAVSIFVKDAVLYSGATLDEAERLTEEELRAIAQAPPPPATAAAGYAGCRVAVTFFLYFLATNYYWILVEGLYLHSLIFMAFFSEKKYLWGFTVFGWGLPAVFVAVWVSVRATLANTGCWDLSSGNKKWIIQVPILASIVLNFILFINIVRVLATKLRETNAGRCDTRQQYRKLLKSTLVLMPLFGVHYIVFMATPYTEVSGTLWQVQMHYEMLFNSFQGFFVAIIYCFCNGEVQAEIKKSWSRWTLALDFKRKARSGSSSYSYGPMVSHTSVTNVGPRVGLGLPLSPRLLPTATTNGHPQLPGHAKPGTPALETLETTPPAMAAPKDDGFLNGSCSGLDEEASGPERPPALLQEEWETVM
The experiment in a line: competition binding, 125I-[Aib1,3,M]PTH(1-21) tracer, COS-7 cells expressing hP1R-WT. The procedure: Competition Binding. Binding reactions were performed with HKRK-B28 cells or in COS-7 cells in 24-well plates. The cells were rinsed with 0.5 mL of binding buffer, and then treated successively with 100 μL binding buffer, 100 μL of binding buffer containing various amounts of unlabeled competitor ligand, and 100 μL of binding buffer containing ca. 100,000 cpm of ¹²⁵I-[M]PTH(1-21) or ¹²⁵I-[Aib^{1,3},M]PTH(1-21)} (ca. 26 fmol; final volume=300 μL). Incubations were 4 to 6 h at 4° C., at which time near equilibrium conditions were attained. Cells were then placed on ice, the binding medium was removed, and the monolayer was rinsed three times with 0.5 mL of cold binding buffer. The cells were subsequently lysed with 0.5 mL […] NaOH and counted for radioactivity. For each tracer and in each experiment, the non-specific binding was determined as the radioactivity that bound in the presence of the same unlabeled peptide at a concentration of 1 μM, and was ˜1% of total radioactivity added for each tracer. The maximum specific binding (B₀) was the total radioactivity bound in the absence of competing ligand, corrected for nonspecific binding, and for each tracer, ranged from 8% to 20% of the total radioactivity added. Nonlinear regression was used to calculate binding IC₅₀ values (see below). Scatchard transformations of homologous competition binding data derived from studies with 26 fmol of ¹²⁵I-[Aib^{1,3},M]PTH(1-21) were employed for estimations of apparent equilibrium dissociation constant (kDapps) and total number of ligand binding sites (Bₘₐₓ), assuming a single class of binding sites and equal affinities of the iodinated and non iodinated ligand.

Experiment [2] addresses T2, truncated human P1R deleted for residues (24-181) (hP1R-delNt) (human, UniProt Q03431 182-593).
T2 construct: whole, on cells; also called delNT receptor
T2 sequence (looked up): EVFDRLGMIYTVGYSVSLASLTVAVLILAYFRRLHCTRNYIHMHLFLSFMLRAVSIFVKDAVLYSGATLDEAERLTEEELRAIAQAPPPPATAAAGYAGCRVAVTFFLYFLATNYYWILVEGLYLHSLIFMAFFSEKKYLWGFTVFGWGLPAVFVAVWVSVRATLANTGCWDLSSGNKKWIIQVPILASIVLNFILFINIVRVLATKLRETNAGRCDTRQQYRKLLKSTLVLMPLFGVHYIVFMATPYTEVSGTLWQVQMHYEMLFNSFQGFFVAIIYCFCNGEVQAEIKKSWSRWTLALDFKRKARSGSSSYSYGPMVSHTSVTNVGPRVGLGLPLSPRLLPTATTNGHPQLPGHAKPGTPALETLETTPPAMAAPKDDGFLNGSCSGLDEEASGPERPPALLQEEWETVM
The experiment in a line: competition binding, COS-7 cells expressing P1R-delNt. Here is the method: These cells, as well as COS-7 cells and SaOS-2-B10 cells, were cultured at […] in T-75 flasks ([…]) in Dulbecco's modified Eagle's medium (DMEM) supplemented with fetal bovine serum (10%), penicillin G (20 units/ml), streptomycin sulfate (20 μg/ml) and amphotericin B (0.05 μg/ml) in a humidified atmosphere containing 5% CO₂. Stock solutions of EGTA/trypsin and antibiotics were from GIBCO; fetal bovine serum was from Hyclone Laboratories (Logan, Utah). […] All cells, in 24-well plates, were treated with fresh media and shifted to 33° C. for 12 to 24 h prior to assay.
Competition Binding. Binding reactions were performed with HKRK-B28 cells or in COS-7 cells in 24-well plates. […] The cells were subsequently lysed with 0.5 mL […] and counted for radioactivity. For each tracer and in each experiment, the non-specific binding was determined as the radioactivity that bound in the presence of the same unlabeled peptide at a concentration of 1 μM, and was ˜1% of total radioactivity added for each tracer. The maximum specific binding (B₀) was the total radioactivity bound in the absence of competing ligand, corrected for nonspecific binding, and for each tracer, ranged from 8% to 20% of the total radioactivity added. […]

The target in experiment [3] is T1, wild-type human PTH/PTHrP receptor …. The experiment in a line: cell-based or functional assay.
Experiment [4] has as its target T2, truncated human P1R deleted for …. The experiment in a line: cell-based or functional assay.
The target of experiment [5] is T1, wild-type human PTH/PTHrP receptor …. The experiment can be described thus: cell-based or functional assay. The source holds these as a separate data set.

B1: [Aib^1,3,M]PTH(1-21) (peptide)
peptide: [Aib]V[Aib]EIQL[Nle]HQ[hArg]AKWLASVRRY-NH2
modifications: N-terminus assumed
SMILES: CCCC[C@H](NC(=O)[C@H](CC(C)C)NC(=O)[C@H](CCC(N)=O)NC(=O)[C@@H](NC(=O)[C@H](CCC(=O)O)NC(=O)C(C)(C)NC(=O)[C@@H](NC(=O)C(C)(C)N)C(C)C)[C@@H](C)CC)C(=O)N[C@@H](Cc1c[nH]cn1)C(=O)N[C@@H](CCC(N)=O)C(=O)N[C@@H](CCCCNC(=N)N)C(=O)N[C@@H](C)C(=O)N[C@@H](CCCCN)C(=O)N[C@@H](Cc1c[nH]c2ccccc12)C(=O)N[C@@H](CC(C)C)C(=O)N[C@@H](C)C(=O)N[C@@H](CO)C(=O)N[C@H](C(=O)N[C@@H](CCCNC(=N)N)C(=O)N[C@@H](CCCNC(=N)N)C(=O)N[C@@H](Cc1ccc(O)cc1)C(N)=O)C(C)C
notes: unlabeled peptide; also called 674 [Aib^1,3, M]PTH (1-21); 674 [Aib^1,3M]PTH(1-21)
B1 showed an IC50 in experiment [1] of 28 nM. Besides, the “fold difference in affinity against [Aib^1,3,M]PTH(1-14)” value in experiment [2] was 50 fold. Besides, the “cAMP EC50” value in experiment [3] is 0.8 nM; in experiment [4], 0.38 nM; in experiment [5], 4.3 nM. Further, the results for the “cAMP EMax(obs.)” value in experiment [3], in experiment [4] and in experiment [5] were 300 pmole/well, 240 pmole/well and 284 pmole/well, respectively.

B2: [Aib^1,3,M]PTH(1-14) (peptide)
peptide: [Aib]V[Aib]EIQLMHQ[hArg]AKW-NH2
modifications: N-terminus assumed
SMILES: CC[C@H](C)[C@H](NC(=O)[C@H](CCC(=O)O)NC(=O)C(C)(C)NC(=O)[C@@H](NC(=O)C(C)(C)N)C(C)C)C(=O)N[C@@H](CCC(N)=O)C(=O)N[C@@H](CC(C)C)C(=O)N[C@@H](CCSC)C(=O)N[C@@H](Cc1c[nH]cn1)C(=O)N[C@@H](CCC(N)=O)C(=O)N[C@@H](CCCCNC(=N)N)C(=O)N[C@@H](C)C(=O)N[C@@H](CCCCN)C(=O)N[C@@H](Cc1c[nH]c2ccccc12)C(N)=O
notes: also called 671 [Aib^1,3, M]PTH (1-14); 671 [Aib^1,3M]PTH(1-14)
Take B2: in experiment [1], the IC50 was 2250 nM. In addition, in experiment [2], the “fold stronger binding affinity than [M]PTH(1-14)” value was around 10 fold. For the same molecule, in experiment [3], the “PLC EC50” value is 71 nM, the “PLC EMAX(obs.)” value was found to be 4.3 foldxbasal, the “cAMP EC50” value was 1.2 nM and the “cAMP EMax(obs.)” value stood at 240 pmole/well. Besides, in experiment [4], the “PLC EC50” value was 130 nM, the “PLC EMAX(obs.)” value was determined as 3.1 foldxbasal, the “cAMP EC50” value was determined as 0.73 nM and the “cAMP EMax(obs.)” value was determined as 250 pmole/well. Further, in experiment [5], the “cAMP EC50” value came to 1.1 nM and the “cAMP EMax(obs.)” value came out at 278 pmole/well.
